Test results: patent publication US20100203559A1

Key:
[1] = biological target: SNAP-25134-197 peptide (human); experiment: SPR (BIAcore 3000), peptide amine-coupled to CM5, antibody as analyte, 1:1 fit
[2] = biological target: SNAP-25134-197 peptide (human); experiment: SPR (BIAcore 3000); by Table 9 the KD of 1D3B8 is the lower one
[3] = biological target: SNAP-25134-197 peptide (human); experiment: SPR (BIAcore 3000), peptide amine-coupled to CM5, antibody as analyte, 1:1 fit; second of two runs, other chip
[4] = biological target: SNAP-25134-197 peptide (human); experiment: SPR (BIAcore 3000), peptide amine-coupled to CM5, antibody as analyte, 1:1 fit; first of two runs

Binder | Kd [1] [nM] | koff [1] [s⁻¹] | kon [1] [M⁻¹ s⁻¹] | fold difference of the equilibrium disassociation constant against MC-6050 and MC-6053 [2] [fold] | Kd [3] [nM] | koff [3] [s⁻¹] | kon [3] [M⁻¹ s⁻¹] | Kd [4] [nM] | koff [4] [s⁻¹] | kon [4] [M⁻¹ s⁻¹]
α-SNAP-25 monoclonal antibody 1D3B8 (antibody, V domains shown) VH: QVKLQESGAELVKPGASVKISCKASGYIFTDHALHWVRQKPEQGLEWIGYIFPGNGNIEYNEKFKGKATLTADKSSSTAYMQLNSLTSGDSAMYFCKKMDYWGQGTTVTVSS VL: DVLMTQTPLSLPVSLGDQASISCRSSQSIVHSNGNTYLEWYLQKPGQSPKLLIYKVSNRFSGVPDRFSGSGSGTDFTLKISRVEAEDLGVYYCFQGSHVPPTFGAGTKLELKR | 0.05 | 5.78e-05 | 1.06e+06 | 10 | – | – | – | – | – | –
α-SNAP-25 monoclonal antibody 2E2A6 (antibody, V domains shown) VH: QVQLQQSDAELVKPGASVKISCRASGYTFTDHSIHWVKQQPGQGLEWIGYIFPGNGNIEYNDKFKGKATLTADKSSGTAYMQLNSLTSEDSAVYFCKRMGYWGQGTSVTVSS VL: DVLMTQTPLTLSVTIGQPASISCKSSQSLLYTNGKTYLTWLFQRPGQSPKRLIYLVSELDSGVPDRFSGSGSGTDFTLEITRVEAEDLGVYYCLQSAHFPFTFGSGTKLEIKR | – | – | – | – | 0.405 | 6.74e-05 | 166000 | 0.09 | 0.000153 | 1.7e+06
α-SNAP-25 monoclonal antibody 3C1A5 (antibody, V domains shown) VH: QVKLQESGAELVKPGASVKISCKASGYTFTDHSIHWVKQKPGQGLEWIGYLFPGNGNFEYNEKFKGKATLTADKSSSTVYMYLNSLTSEDSAVYFCKRMGYWGQGTTVTVSS VL: DVVMTQTPLTLSVTIGQPASISCKSSQSLLNTNGKTYLTWLIQRPGQSPQRLIYLVSKLDSGVPDRFSGSGSGTDFTLKISRVEAEDLGVYYCLQSSHFPFTFGSGTKLEIKR | 1.33 | 0.000288 | 217000 | – | – | – | – | – | – | –
α-SNAP-25 monoclonal antibody 2C9B10 (antibody, V domains shown) VH: QVKLQESGAELVKPGASVKISCKASGYTFTDHSIHWVKQKPGQGLEWIGYLFPGNGNFEYNEKFKGKATLTADKSSSTAYMHLNSLTSEDSAVYFCKKMDYWGQGTTVTVSS VL: DIQMTQSPASLSASVGETVTITCRTTENIYSYFVWSQQRQGKSPQLRVYNAKSLAEGVPSSFNVSVSGTQFSLKINSLQPEDFGTYHCQHHYGTPYTFGGGTRLEIRR | 27.1 | 0.000311 | 11500 | – | – | – | – | – | – | –
